# Reference: publication PMC4660254
# Target: Mud C-terminal coiled-coil domain (Mud^CC) (Drosophila)
# Test: SEC
substance,measurement,value
Mud C-terminal coiled-coil domain (Mud^CC) (domain or fragment),stoichiometry N,3
